Reference: the nanobody polyreactivity screen of Harvey et al. (2022)

Assay: yeast display, Sf9 membrane polyspecificity reagent, FACS + sequencing; frameworks hold sequencing errors
Method in brief: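 Synthetic nanobody libraries on Saccharomyces cerevisiae BJ5465 were galactose-induced for 36–48 hours, stained 1 hour at 4 °C with 10% biotinylated, detergent-solubilized Sf9 membrane reagent and enriched on streptavidin microbeads. FACS then separated cells into low and high (top ~1%) gates by anti-HA (expression) and streptavidin (reagent binding) fluorescence. Genes were colony-PCR amplified, MiSeq 2 × 250 sequenced and CDR-length filtered. A clone's polyreactivity label is that of its gate of origin.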

Sequence	polyreactivity (PSR sort gate)
QVQLVESGGGLDQAGGSLRLSCAASGLTFDANAMGWYRQAPGKERELVAAISSGGSTYADSVKGRFTISRDNAKNTVYLQMNSLKPEDTAVYYCNAVSIDVIQGDYNYWGQGTQVTVSS	low polyreactivity
QVQLVESGGGLVQAGGSLRLSCAASGNTFVAYAMGWYRQAPGKERELVAGITRGGTTYYADSVKGRFTISRDNAKNTVYLQMNSLKPEDTAVYYCAARLGYRYNYWGQGTQVTVSS	high polyreactivity
QVQLVESGGGLVQAGGSLRLSCAASGFTFWRYAMGWYREAPGKERELVAAITGLGRTNYADSVKGRFTISRDNAKNTVYLQMNSLKPEDTADYYCNVVRVYRYDYWGQGTQVTVSS	high polyreactivity
QVQLVESGGGLVQAGGSLRLSCADSGRIFRSNAMGWYRQAPGKERELVATITSSGGRTYYADSVKGRFTISRDNAKNSVYLQMNRLKPEVSAVYYCNAQQRTRGQKAQWVRDEYWGQGTQVTLSS	low polyreactivity
QVQLVESGGGLVQAGGSLRLSCAASGSIFDYYGMGWYRQAPGKERELVARITKRGGSTYYADSVMGRFTISRDNAKNTVYFQMNSLKPEDTAVYYCAAVVAYLFSGRGYRYNYWGQGTQVTLSS	high polyreactivity
QVQLVESGGGLVQAGGSLRLSCAACGRTFGWYAMGWYRQAPGTERELVATISSRGGATYYADSVKGRFTISRDNAKNTVYFQMNSLKPEDTAVYYCAAYSRTFEGHRGGYWGQGTQVTVSS	high polyreactivity
QVQLVESGGGLVQAGGSLRVSCAAYGRTFYRNTMGWYRQAPGKEREFVAAISATAGRTYYADSVKGRFTFSRDNAKNTVYLQKNSLKPEDTAVYYCAAVPLRNRWPNSWPALDYWGQGTQVTVSS	high polyreactivity
QVQLVESGGALVHAGGSLRLTCAASGYTFRYYAMRWYRQAPGKERELVARINRSGGSTYYADSVKGRFTISRDNAKNTVYLQMNSLKPEDTAVYYCNRDYGWHYSYEYWGQGTQVTVSS	high polyreactivity
QVQLVESGGGLVQAGGSLRLSCAASGSIFYTYVMGWYRQAPGKERELVAAISASGVRTYYADSVKGRFTISRDNAKNTVYLQMNSLKPEDTAVYYCAADRQRADYYWGQGTQVTVSS	high polyreactivity
QVQLVESGGGLVHAGGILRLSCAASGFIFWSYAKGWYRQAPGKERELFAAIDLSGGSTYYADSVKGRFTISRDNAKNTVYLQLNSLKPEDTAVYYCNADGDTYAFTNSDSGFDYWGQGTQVTVSS	low polyreactivity
QVQLVESGGGLVQAGGSLRLSCAASGITFGPNAMGWYRQAPGKERELVAAISWRGGSTYYADSVKGRFTISRDYAKNTVYLQMNSLKPEDTAVYYCAKVQIPASYIRYDYWGQGTQVTVSS	low polyreactivity
QVQLVESGGGLVQAGGSLRLTCAASGLTFYFYTMGWYRQAPGKERELVAAIRSAGRTNYADSVKGRFTISRDNAKNTVYLQMNSLKPEDTAVYYCAAISPGYYRIVWYDYWGQGTQVTVSS	high polyreactivity
QVQLVESGGGLVQAGGSLRLSCAASGSTFSYYPMGWYRQAPGKERELVATISKRGGTTSYADSVKGRFTISRDNAKNTVYLQMISLKPEDTAVYYCAARYSKVHYAYDYWGQGTQVTVSS	high polyreactivity
QVQLVESGGGLVQAGGSLRLSCAASGLTFDYYAMGWYRQAPGKERELVAAISISGDRTYYADSVKGRFTISRDNAKNTVYLQMNSLKPEDTAVYYCNARYPGSFRDDYWGQGTQVTVSS	high polyreactivity
QVQLEESGGGLVQAGGSLRLSCAASGRTFGTYVMGWNRQATGKHRELVAAISRSGGGTYYADSVKGRFTISRDNEKNTVYLQMNSLKPEDTAVYYCADRRVVYRYYWYSAYDYWGQGTQVTVSS	high polyreactivity
QVQLVESGGGLVQAGGSLRLSCDASGTFYGKTMGWYRQAPGKERELVAVISIDGSTNYADSVKGRFTISRDNAKNTVYLQMNSLKPEDTAVYYCNARNQWRTVGKYDYWGQGTQVTVSS	low polyreactivity
QVQLVESGGGLVQAGGSLRLSCAASGGTFGYNTLGWYRQAPGKERELVAAITGSGGRTYYADSVKGRFTISRDNAKNTVYLQMNSLKPEDTAVYYCNALTYPDYGYWGQGTQVTVSS	low polyreactivity
QVQLVESGGGLVQAGGSLRLSCAASGFIFGVYAKGWYRQAPGKERELVAAISGSGVRTYYADSVKGRFTISRDNAKNTLYLQMNSLKPEDTAVYYCAARRGFVRPYNYWGQGTQVTVSS	high polyreactivity
HVQLQESGGGLVQAGGSMRLTCAASGQKSSYYSMGWNRQAPGKEREFVATIAVGGTTNYADSVKGRFTISRDNAKNTVYLQMNSLKPEDTAVCFCAANSTQYTWFDYWGQGTQVPVSS	low polyreactivity
QVQLVESGGGLVQAGGSLRLSCAASGSIFIFNAMGWYRQAPGKEREFVARIRRDSSTYYADSVKGRFTISRDNAKNTVYLLMNSLKPEDTAVYYCAAKRVYRRVELNSWGQGTQVTVSS	low polyreactivity
QFQLVESGGGLVQAGGSLRLSCAASGRTFWSNAMVWYRQAPGKERELVAAISGGARTNYADSVKGRFTISRDNAKNTVYLQMNSLKPEDTEVYFCAATPRYWQSRYDYWGKGTQVTVSS	high polyreactivity
QVQLVESGGGLVQAGGSLRLSCAATGSIFSFYAMGWYRQAPGKERELVAGIRWRGGTSTFYADSVKGRFTISRDKAKNTVYLHMNSLKPEDTAVYYCAAKRRTGGNGYWGQGTQVTVSS	high polyreactivity

Sequence	polyreactivity (PSR sort gate)
QVQLVESGGGLVQAGGSLRLSCAASGSIFYRNAMGWYRQAPGKEREFVAAITLRGGSTYYADSVKGRFTISRDKAKNTVYLQMNSLKPEDTAVYYCNAGVGLTYVHDGDYWGQGTQVTVSS	low polyreactivity
QVQLVESGGGLVQAGGSLRLSCAASGNTFDRYAMGWYRQAPGKERELVAAITRSGGNTYYADSVKGRFTISRDNAKNTVYLQMNSLKPEDTAVYYCAAYFFPYYTGYGYWGQGTQVTVSS	high polyreactivity
QVQLVESGGGLVQAGGSLRLRCAASGFILYPYAMGWYRQAPGKERELVAAITSRGGRTYYADSVKGRFTISRDKAKHSVYFQMNSLKPEDTAVFYCAAKRTCNYAPLKYYSWGQGTQVTVSS	high polyreactivity
QVQLVESGGGLVQAGGSLRLSCAASGSTFDIYAMGWYRQAPGKERELVAAIRGRGGSTYYADSVKGRFTISRDNAKNTVYFQMNSLKPEDTAVYYCAADSYATRYYYWGQGTQVTVSS	high polyreactivity
QVQLVESGGGLVQAGGSLRLSCAASGNTFAVNAMGWYRQAPGKERELVAAISRSGVTTRYADSVKGRFTISRDNAKNTVYLLMNSLKPEDTAVYYCNADPRLRQTRDYWGQGTQVTVSS	high polyreactivity
QVQLVESGGGLVQAGGSLRLSCAASGFTFRDYAMGWYRQAPGKERELVAAISRSGDSTYYADSVKGRFTISRDNAKNTVYLQMNSLKPEDTAVYYYAAKRRYTTYDYWGQGTQVTVSS	high polyreactivity
QVQLVESGGGLVQAGGSLRISCAASGGIFWTYAMGWYRQEPGKERELVAAISYSDGITYYADSVKGRFTISRDNAKNTVYFQMNSLKPEDTAVYYCAADPELAVPMYYWGQGTQVTVSS	low polyreactivity
QVQLVESGGGLVQAGGSLRLSCAASGFIFLETDKGWYRQAPGKERELVASINSGTNTYYADSLKGRFTISRDNAKNTVYVEMNSLKPEDSAVYYCNADDAYLVTQPYDDNYDYWGQGTQVTVSS	low polyreactivity
QVQRVESGGRLVQAGGILRVSCAASGGTFGINAMGWYRQSPGKEREFVAAITRGDGSTYYADSVKGRFTISRDNAKNTVFIQMKSLKPEDTAVYYCAKRYFVYYSMDYWGQGTQVTVSS	low polyreactivity
QVQLVESGGGLVQAGASLRLSSAASGSTFKYYTMGWYRQAPGKERELVAAISFSGARTYYADSVKGRFTISRDNAKNTVYLQMNCLIPEDTAVYYCAKASSYSRRYEYWGQGTQVTVSS	high polyreactivity
QVQLVESGGGLVQAGGSLRVSCAASGFTFYVNAMGRYRQAPGKERELVAVISPSGGRTYYADSVKGRFTISRDNAKNTVYLQMNSLKPEDTAVYYCAAESGGYHWSTPYFDWLYYYWGQGTQVTVSS	low polyreactivity
QVQLQESGGGLVQAGGSLRMRCAASRNISGSSDLGWYHQAPGKEREFVASITSGGTTYYADSVKGRFTISRDNAKNTVYLQMNSLKPEDTAVYYCAVGDPADAEFGYWGQGTQVTVSS	low polyreactivity
EVQLVESGGGLVQAGGSLRLSCAASGGTFRYYAMGWSRQAPGKERELVASSSSGGSTNYADSVKGRFTISRDNAKNTVYLQMNRLKPEDTAVYYCARRRFYYGHHPGSSWYDYWGQGTQVSVSS	low polyreactivity
QVQLVESGGGLVQAGGSLRLSCAASGRTFASYAMGWYRQAPGKERELVATIRSGDSTNYADSVKGRFTISRDNAKHTVYLQMNSLKPEDTAVYYCAADRDIFQQGANGAPYDYRGQGTQVTVSS	low polyreactivity
QVQLVESGGGLVQAGGSLRLSCAASGRILGKNTMGWYRQAPGKEREFVAAISASGGRTYYADSVKGRFTISRDNAKNTVYLQMNSLKPEDTAVYYCAAARSRYSYATGFDYWGQGTQVTVSS	high polyreactivity
QVQLVESGGGLVQAGGSLRLSCDASGNIFKSYVMGWYRQAPGKERELVAAITWSGGSTYYADSVKGRFTISRDNAKNTVYLQMNSLKPEDTAVYYCAAYPRRYRTTYDYWGQGTQVTVSS	high polyreactivity
QVQLVESGGGLVQAGGSLRLTCAASGRTFYVNAMGWYRQAHGKERELVATISRGGSTHYADSVKGRFTISRDNAKYTVYLQLNSLKPEDTAVYYCAAPGRTSVYRYYYWGQGTQVTVSS	high polyreactivity
QVQLVESGGGLVQAGGSLRLSCAASGSIFYHYAMGWYRQAPGKERELVAAISDRGTSTYYADSVKGRFTISRDNAKNTVYLQMNSLKPEDTAVYYCAAEGSLNSFYYSYYYWGQGTQVTVSS	high polyreactivity
QVQLVESGGGLVQAGGSLRLSCAASGRIFKSYVMGWYRQAPGKERELVAAISITGGSTYYADSVKGRFTISRDNAKNTVYLQMNSLKPEDTAVYYCAAGRSGQEDDYWGQGTQVTVSS	high polyreactivity
QVQLVESGGGLVHAGGSLRLSCAASGSIFPPYAMGWYRQAPVKERELVAAITRSGGSTYYADSVKGRFTISRDNAKNTVYLQLNSLIPEDTAVSDCADRYPGGYGYWGQGTQVTVSS	high polyreactivity
QVQLVESGGGLVQAGGSLRLSCAAAGFTFSVNAMGWYRQAPGKERELVAAISSRGSITYYADSVKGRFTISRDNAKNTVYLQMNSLKPEDTAVYYCNAYKYKSPGDYWGQGTQVTVSS	high polyreactivity
